According to US6916472B2, “PON3 and uses thereof” (Regents of the University of Michigan, priority 2000, dated 2005):
Substitutions are numbered along the chain they refer to. Numbers in names are those of the source.

Legend:
[1] = test system: LDL; experiment: Protection of LDL against copper-induced oxidation (conjugated dienes, lipid peroxides); format: biochemical, rabbit; details: LDL 0.1 mg protein/ml, 2-10 μM CuSO4, up to 5 h at 37° C.
Procedure: In one illustrative example (Example 5) of the present invention, the ability of PON3 to protect against LDL oxidation was assayed. In this example, LDL oxidation was induced by the incubation of the lipoprotein with 2-10 μM CuSO4 in the air, in the absence or presence of PON3 or PON 1, for up to 5 h at 37° C. The kinetics of lipoprotein oxidation was followed by monitoring the conjugated dienes formation at 234 nm (Esterbauer et al., Free Radical Res Commun, 6:67-75 [1989]) using a quartz microtiter plate in a SPECTRAmax® 190 plate reader (Molecular Devices). Lipoprotein oxidation was also determined by the lipid peroxides test, which analyzes lipid peroxides by their capacity to convert iodide to iodine, as measured photometrically at 365 nm (E1-Saadani et al., J Lipid Res, 30:627-630 [1989]).
LDL were isolated by ultracentrifugation as described above (Example 4). […] The kinetics of lipoprotein oxidation was followed by monitoring the conjugated dienes formation at 234 nm (Esterbauer et al., Free Radical Res Commun, 6:67-75 [1989]) using a quartz microtiter plate in a SPECTRAmax 190 plate reader (Molecular Devices). Lipoprotein oxidation was also determined by the lipid peroxides test, which analyzes lipid peroxides by their capacity to convert iodide to iodine, as measured photometrically at 365 nm (E1-Saadani et al., J Lipid Res, 30:627-630 [1989]).

[2] = Lactonase activity of wild type and mutant rPON3 in expression media of transfected 293T cells; format: biochemical; details: Lovastatin hydrolysis; based on quantitation of western blot
Procedure: The hydrolysis of the statin lactones (mevastatin, lovastatin and simvastatin) was analyzed by high performance liquid chromatography (HPLC) using a Beckman System Gold HPLC with a Model 126 Programmable Solvent Module, a Model 168 Diode Array Detector set at 238 nm, a Model 7125 Rheodyne manual injector valve with a 20 μl loop, and a Beckman ODS Ultrasphere column (C 18, 250×4.6 mm, 5 μm). Lovastatin (Mevacor) and simvastatin were purchased as 20 mg tablets from Merck, from which the lactones were extracted with chloroform, evaporated to dryness and redissolved in methanol. Mevastatin was purchased from Sigma. […]
Samples were eluted isocratically at a flow rate of 1.0 ml/min with a mobile phase consisting of the following: A=acetic acid/acetonitrile/water (2:249:249, v/v/v) and B=acetonitrile, in A/B ratios of 50/50, 45/55 and 40/60 for mevastatin, lovastatin and simvastatin, respectively. […] Response factors for the acid products were calculated from the peak heights after complete alkaline hydrolysis of the lactones in 0.02 M NAOH for 2-24 hours at 25° C.
Expression media from the transient transfection of mutant clones into 293T cells was analyzed for activity towards the lactone Lovastatin up to 4 days post transfection.
Specific activities were calculated based on quantitation of the western blot in FIG. 10. […]

[3] = Statinase activity of samples of BL21(DE3) culture expressing rPON3; format: biochemical; details: culture sample
Procedure: The hydrolysis of the statin lactones (mevastatin, lovastatin and simvastatin) was analyzed by high performance liquid chromatography (HPLC) using a Beckman System Gold HPLC with a Model 126 Programmable Solvent Module, a Model 168 Diode Array Detector set at 238 nm, a Model 7125 Rheodyne manual injector valve with a 20 μl loop, and a Beckman ODS Ultrasphere column (C 18, 250×4.6 mm, 5 μm). Lovastatin (Mevacor) and simvastatin were purchased as 20 mg tablets from Merck, from which the lactones were extracted with chloroform, evaporated to dryness and redissolved in methanol. Mevastatin was purchased from Sigma.
In a final volume of 1 ml, 10-200 μl of enzyme solution and 10 μl of substrate solution in methanol (0.5 mg/ml) were incubated at 25° C. in 50 mM Tris/HCl (pH 7.6), 1 mM CaCl2. Aliquots (100 μl) were removed at specified times and added to acetonitrile (100 μl), vortexed, and centrifuged for one minute at maximum speed (Beckman microfuge). The supernatants were poured into new tubes, capped and stored on ice until HPLC analysis.
Samples were eluted isocratically at a flow rate of 1.0 ml/min with a mobile phase consisting of the following: A=acetic acid/acetonitrile/water (2:249:249, v/v/v) and B=acetonitrile, in A/B ratios of 50/50, 45/55 and 40/60 for mevastatin, lovastatin and simvastatin, respectively. Under the above conditions the retention times for the carboxylic acid formed and the lactone substrate were as follows: 4.5/6.4 min (mevastatin), 4.4/5.6 min (lovastatin) and 5.4/7.7 min (simvastatin), respectively. Response factors for the acid products were calculated from the peak heights after complete alkaline hydrolysis of the lactones in 0.02 M NAOH for 2-24 hours at 25° C.
This Example describes the expression of rabbit PON3 protein in bacteria. The endogenous NcoI site at the translation start site, and an engineered XhoI site in the 3′ UTR were used to clone the rPON3 cDNA into the bacterial expression vector pET24d+. The resulting vector (prPON3/pET24d) was transformed into bacterial BL21(DE3) cells. LB broth supplemented with […] Kanamycin was inoculated with a single colony and the bacteria were grown at 37° C. When the culture reached an OD600 of 0.7, IPTG (1 mM) was added and growth continued. Samples of the culture were taken at the time of induction and 1, 2, 4, and 16 hours post-induction. Samples were electrophoresed through a 10% SDS-PAGE gel and Western blotted with a human PON1 antibody. An inducible, 40 kDa band was visible in the 1, 2, 4, and 16 time point lanes that aligned with a rPON3 standard. The samples were also assayed and found to have 257, 8663, 6178, 5872, and 8436 U/ml statinase activity for time points 0, 1, 2, 4, and 16 respectively.

[4] = test system: mice given LD100 dose of LPS; details: cited from earlier work

B1: PON3: paroxonase 3 polypeptide purified from rabbit serum, 40 kDa, SEQ ID NO:8 (protein, listed as Oryctolagus cuniculus)
chain: MAKLLLLTLLGASLAFVGERLLAFRNSFGAVQELEPVEPQNCVLIEGLENGSEDIDILPSGLAFISSGLKYPGMPNFAPDEPGKIFLIDMNEKNPRAQELEISNGFEKESFNPHGISTFIDKDHTVYLYVVNHPHMKSTVEIFKFEEQQRSLVHLKTIKHELLKSVNNIVVLGPEQFYATRDHYFTNYVLALLEMFLDLHWTSVLFYSPKEVKVVAKGFSSANGITVSLDKKYVYVADATAKNVHVMEKHDNWDLTELKVIHLDTLVDNLSVDPATGDILAGCHPNGMKLLNYNPEDPPGSEVLRIQNVLSEKPRVSTVYTNDGSVLQGSTVASVYQGKILIGTIFHKTLYCVL
[1]
  inhibiting conjugated diene and lipid peroxide formation, compared with PON1: significantly better

B2: K243H: site-directed single amino acid change mutant of rabbit PON3, SEQ ID NO:12 (protein, listed as Oryctolagus cuniculus)
chain: B1 chain with K242H
[2]
  specific activity compared to the wild type (fraction): about ⅓

B3: L281W: site-directed single amino acid change mutant of rabbit PON3, SEQ ID NO:14 (protein, listed as Oryctolagus cuniculus)
chain: B1 chain with L280W
[2]
  specific activity compared to the wild type (fraction): about ⅓

B4: rPON3: recombinant rabbit PON3 expressed in 293T cells or E. coli BL21(DE3) (protein)
chain: AKLLLLTLLGASLAFVGERLLAFRNSFGAVQELEPVEPQNCVLIEGLENGSEDIDILPSGLAFISSGLKYPGMPNFAPDEPGKIFLIDMNEKNPRAQELEISNGFEKESFNPHGISTFIDKDHTVYLYVVNHPHMKSTVEIFKFEEQQRSLVHLKTIKHELLKSVNNIVVLGPEQFYATRDHYFTNYVLALLEMFLDLHWTSVLFYSPKEVKVVAKGFSSANGITVSLDKKYVYVADATAKNVHVMEKHDNWDLTELKVIHLDTLVDNLSVDPATGDILAGCHPNGMKLLNYNPEDPPGSEVLRIQNVLSEKPRVSTVYTNDGSVLQGSTVASVYQGKILIGTIFHKTLYCVL
[3]; 1 hour post-induction
  statinase activity: 8663 U/ml
[3]; 2 hours post-induction
  statinase activity: 6178 U/ml
[3]; 4 hours post-induction
  statinase activity: 5872 U/ml
[3]; 16 hours post-induction
  statinase activity: 8436 U/ml
[3]; time point 0 (time of IPTG induction)
  statinase activity: 257 U/ml

B5: human PON1: purified human PON1 (paraoxonase 1), literature study of LaDu et al. (protein, UniProt P27169 2-355, looked up)
Serum …: AKLIALTLLGMGLALFRNHQSSYQTRLNALREVQPVELPNCNLVKGIETGSEDLEILPNGLAFISSGLKYPGIKSFNPNSPGKILLMDLNEEDPTVLELGITGSKFDVSSFNPHGISTFTDEDNAMYLLVVNHPDAKSTVELFKFQEEEKSLLHLKTIRHKLLPNLNDIVAVGPEHFYGTNDHYFLDPYLQSWEMYLGLAWSYVVYYSPSEVRVVAEGFDFANGINISPDGKYVYIAELLAHKIHVYEKHANWTLTPLKSLDFNTLVDNISVDPETGDLWVGCHPNGMKIFFYDSENPPASEVLRIQNILTEEPKVTQVYAENGTVLQGSTVASVYKGKLLIGTVFHKALYCEL
[4]; i.p. injection before LD100 dose of LPS
  survival, pretreated animals: 60%
[4]; i.p. injection up to 2 hours after LD100 dose of LPS
  survival, post-treated animals: 30%
